Assay: protease stability score; higher = more stable; yeast display proteolysis, trypsin and chymotrypsin;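 also: log10 excess protease needed over predicted unfolded state with 0 meaning unfolded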

Sequence | protease stability score
DENVVKRVHDALQTNDWQQLADLFDKDARVHVGEFQLHGHEEVQKFVDLQRKQIDHMEVRSIEIDGERAEAEFVIRVDGRKREAEITIRANNGKAKEMKIQFTDKDFERKMREKME | 0.836
DEDTLKHMAREFVKALQTGDEDRLSEMVDENVRIDYGDKTVSGRKKAQEYAHRVRKQVDHIEVREVEVHGNKVEIDAVLVFNGQRLTVTFRIIMRNGKVQHIQLEVTDPDKQRKAEQ | 1.26
DEEAKKLADEWADAVNKNDEKSLKDLVDPNAKFRVGNQEYHGREQLEEFLSKWMSEWRHSLEDWRVNVQGDTVVLTAKLNVDVNGKPARVDAHVEFVVHNGRIKSQSEQFDEQRLRDNKS | 0.521
DEHAVRRLQEFARVLERGDESKAEQYLDPEVRITVGDREINGMKTFNNFLQEVSRQMRFSLQHVEARARNGKARIIMHFQVDHNGNPEQQRIDITASLHNGRMKRMHMRTDR | 0.031
DEKRLKEVAKKVFEAVQKGDTEKLKKLGKEDGKFQFLDHRYKGKEEYARIMQKLKKHGVQFEIKKYQVKDNKVRMETVVTYGDQTFTVEAEARYEGGQLDEARVEMTEEAKERLKQG | -0.084
DEETNQELLERLIDLISHGDEDEFNRQADEEAKAQYGDTRYHGREEVVKAIKTLADRVDHWHIESYHVHGNEMVIDMRWTVNGRTRRANIVMEAENGRIKYVQMDDQ | 0.765
DEDKMKEVIEKVLRMLETGDPHEASKLADENAKIRYGDKTYHGRDQVHELLDRITKRVDHVEIKDFSVQGEQLVLHFVLNINGKNKEVVLVATVHNGRIKSLHVDDQ | 1.26
DEELITSANEMLQQLTTGNPQEIEKQADPNARVVVGDKTYTGMDQMARDRATEVQQIRRSFRIKTVQNQGDNANIHAEYEFNINGQPRTFELTLNVEAHNGKFVHIKYHLDPDHLNKLES | -0.078
DEDNLRDAMEVYHQNDPDKAVKMADEDVKVVVGDRKWNGREDFEEAMRTFNQRVDHIEYKSMDVSNGQISIDVVINVDGQNARFILNIEIHNGKIKSLRYQWRNENVRQVLTEIFQ | 0.795
DERKRAKKALDDLKHAMHSNDPDKQKELMDENVELKYGDRHVNGREQANQHAEEHFERADHLDQKIQTWDIHNGKVSVTFTMTIEFNGRRENIQVQVTFDTVDGRLRIRTAREK | 0.525
DEHNSRQAKEWVKALNHNDTSRLMELVDPNATITVGDKSLTGREQMSEDVDRKREEINVFVNRVEVNSHGDRAKVRIDYQQHENGRPQRNVIVAILQFHNGKIQRVENEHDQ | -0.052
EEKNQEHAEQVFRAYKDGDPNQIQRLLDPNAHARIGDKQLHGREQAREIMHRLRRHLQMDLKLQDVKAEGDKLQLNARAKHDDNGRPNDVKITITFDLQNGRIKSMSVKMSG | 0.022
DEETQNTRMEEFFKALKTGDEDRAVELADENVKIEIGDRSVSGREVVRHYVQDFQRRVDHNEIKSMRVHNGRAEVTMVVNHNGTTDTRVVHLEAENGRVRRISVDHP | 0.448
DDEKTRDLLRKAMRAFITGDPDTLRHLFDKDARARYGDKEVRGREQIQHQLREIRSTVDHIDVKDMEVQGNHATLSLSLVVNGREVKVRVKIVVHNGRAQSVTMDPHDIRKLNS | 1.29
DEETKAHKWAEKFQRALKDGDPKKMENLMDKNVKAQYGDKTIHGDEEANSWVRRMKHQVDHVSATITRVEADNGKVIVRMTVVVDHNGREQRYEVNLEAKDHNGHIHLTRLKVG | 0.262
DESLRKLLERIWRALTSGDPDELRKLADEDAKFQIGDKRINGMNEAAERWATRVRQLRVRIEDVKQHVEGDKVEAHLDVVREKNGQPQKHEEHVRMRAEGDRAKELVIQISQ | 0.031
DDDEVRKAMRAVTNFFKGNPDQVMELIDPNAHIQVGDKSVTGREQARHLVKDVKEEQQFDVQSVDARDHGSKIVINVRFEVRHNGQPREKFMVLEMSVHNGKIQEMRVRTDS | 0.946
DDEHANSMADQLQKAFETGDEDQIRRLMDKDVSINYGDKRIKGSRELAHWVATLRRQVDSIEYKSIHVKGDKVDIDVVVNVNGRNARFTLVARFSNGKFKELRVDPENMKRLKS | 1.47
DEEKMDRAKEHYKAIQKGDHERARQLADPNATFVIGDKTIHGREEYADQMKKRRDHIRIEIKSVTFNEEEGRVDVKIEQVRQHNGKPKKFRQDVKFDVQGDKIHQISVTEKK | 0.189
DETQDKKAERLVKKNNWDEMVRNADKDVRVQVGDYEVHGREDMKRLAKKFKDRYDHVKVDDVQVHNGRVNADMKATVDGHTIRFILQADIHNGRFKYMTLQARSSEQEKHLKRLFQ | 0.475
DDEVNHNFEEMLKARESGDPDRLKELFRDDVRMQVGDKQVTGREKLAEHLVENMKHSQRTIRITDIKAHNGRLEVRLKFTEEHNGRPKTAEADVKAVVHNGKFVSMHVDQKR | -0.523
DDQAKRIVDEILTNMRTGDEDKLKTLIDPNARARVGEKEVHGWDDALKEIADKLRDIRIQIDRFSVKVTGDKVKIDFTAQNEHNGQPSTKKYERNYKIKNGRVKHFEDVSTQ | -0.192
DEDAVKLFHNVQHVIEQGDKDKAVKNFDPNASAKVGDKEVHGMEDWVRTLVKEASQLRIDLKWDDYRVHGDKINMNIELNKEHNGHPSTTRMHIDAHVHNGRVKFVAYNRRP | 0.066
DENKEAKHFAQDINDAFQHNDPDHLNRLFDPNARMQIGDKEIRGKEQFKEENRRMVDQVDKVEVHVKEISVHNGRVEFVLIIRENHNGRNTQTSVEVNAEKQNGQIRIRQETEQ | -0.307
DDHALRLVEEFLRAMRTGDEDKLKELVDPNARVTVGDHVWHGMESAAREWKRLKDEMRIKIDLQHVDDHGNSANAKASLAFRVNGKPQQNHMKMEVIFENGRIQSIVLRFSNEVEHNIKR | 1.28

Sequence | protease stability score
DKDERHRIAHRLNEAIRTGDPHQMLRLADKNVKVQIGEKDVRGKDAIDKYARDLRKKVDHIQLRSLDVQGEEITMTIVFNVNGRRETVVYHVDYHNGQVKRVMVRSK | 0.043
DHKAVEMVEQMWKNLNEGDFKKFTRLIDKDVKYVYGDRRVEGREELVNRFHRKMREMRFQIVRMSLTDHGDKVVVNYTVQFNKNGRPDRKVQRLLVKVENGTIKELRVQEHQ | 1.62
DQEDKDSLEQILHTGDWVDAAKSADPNAQAEVGDKTWTGREQVEKVMKRLRDDIDHQEVKSVEIDGDKMHVDLTAHINGERMRITIEVKYSNGHLVKVVVKATDKEVEKHLKKLLD | 1.54
DEHAQKRASQLVDKQNTGNPESIANYMDPNAKVQVGENRVHGREEIETLVKQKNKEARYEYNVESMSIQGDKLTMHLHAVVEINGQPLEFKVRVDFTFHNGRIRDVYYQLPEELLEELKR | 0.165
DEENAERLKKIFRAVQENDSKQIERNFDPNAEVTYGDKTVTGREEQSREYHKILHEIRVRIQIKHVKVHNGRLSIHAKMDREHNGEPDDATLIVEAHFHNGKATEQQNDVHK | 0.44
DEDDRKRVAKEFMDNLNTGNEDEALKLADKDARLRYGDKTLHGREQIKDWLHTLRERIDSIEVHRIEVQGDKVRVRASVVINGKEEMVDINFRMSNGRLEKVTFDPRLDEMLKG | 1.44
DDHEVAKQNMRDLLTILNTGDPDKAEEMADKDVKIDVGDKRYHGQTKMREWIEELRKRYDHIHADVKSVEVHNGQVRADIEMVFNHNGREETVKVDVKAELDGDKVKIENLVLR | 1.3
DDEIERTMKNLMEAFSEGDPDKFRRNADPNAKMNVGDKSFHGMDDFLHQLKQLNKQARIEIEHITVTAQGDHAEVHAQFVNTENGRPRTKRVVYRAEVRNGQAKSIKLEDTK | 0.176
DEENHTLAKMWFHAYNKGDEDQVRRMADPNVKIQIGDKVIHGRNDEVRWLKERRDHQRSDIKLDHVSASNGRVQIHFTFTVQHNGKPNTSKQQLSMVFQGDKLKSLHMRTDG | -0.112
DDRDIKQAADRFLEDIKTNNPENVRKLVDENARVQIGDKQYRGKERIQEAMEEWIKRVDHWRIEDIKIHGDQVHVKMRINVNGRNLTFIMVVSIKNGTLKTLTMNVTDTEKLREMLR | 1.27
DEEDLHRNMKQMLKDFNTGDPDKIQEQIDPNAKVQVGDTTFHGREEAHRMARDFRHQVDHIQLKEVKVRGNEFEASVVVKYDGKERRFVMQANVHNGKVKKLWFEDK | 0.063
DDRELEDVQRVVETGDPDKLNDLADKDARMQVGDHKVRGSDQVRSLMDKLKKRIDHYDVKSITIRNGRLDATVVFVINGEEIEVRIVLRVHNGRLKEMSIHATSERVQTILKKAMS | 0.803
DDDKERKARKFAEIYMHGDWRKAHQYADPNVRIKVGDKTFQGRESLAKLVESLRKEQRLEMKRVEARVTNGRINLHLRFVVQKNGTPSHRRIHFDARMHNGKLKEMTENDKR | 0.115
DDDAVRQAQENLKAIEDGDEDKVRNLMDPNAQVNIGDKTIHGMEEFMRQMKRKLDEIRVDYEDIKIDKQGDKARLDATWRQDDNGEPHSMKVDVDVKFRNGKIVDWQQQYDG | -0.149
DHEAVKLMERLIEALNTGDPDQLRRLADKDVRWRYGDKDVHGRESVVTQLKKRLEQSRFKVTDVDIKAQGDNVTADYRVIFEHNGKPDDVTVKVEAKVHNGRIKMMKIQTDK | 0.623
DSHEKAEKWARKLNQVWEHNDPDRAMEMVDPNVRVDIGDRRYHGREDWRKMVEHLNKRVDHMEFKFDQVDAHNGKIRITVTFTYTIDGQERTERLVFHVDNVNGRLVAQKAHDG | 0.343
DERAAQTAVDLMKTNNERDRVKMADENVRYNVGDKTVHGREEWKKFAEQQRTSIDHMKIDDVKHHNGRIQVDMVVVVNGKKFRFVLQATVHNGKFKYFQRKVRDDEIRKILRRINK | 0.235
DHHDRKLFKHLITALRDGDEDKVKKNVDPNVKIDIGDTTWNGREQWAKDVREKREEMRVDIKLKRLTASNGRVTAKLRVRNKHDGRPHQHEFTVEFRRSNGRWKEIHVDDDK | -0.008
DERQNERFETLVKAIEEGDEDEAREQMDPNVRIEVGDKVIHGMDEFADTVRRTREELRVEFKIKRLRIKNGQVDVEMHVTFDHNGEPETARMVIKVNAHNGKIKNVVMRIHK | 1.6
DENKKAEKVARDYIKNAQTNNSESLKKLADPNVEVVIGDTTYTGTKDFVKFVQEIVRQADHISLNVRSVEVQGDKADVVAEVRVDFNGNQRRQDIRFHAQLQGDKVKLKMIQYK | 1.06
DDDNVRKMNEMFNALETGDEHKLKKQFDPNAHIRIGDQTYHGMDDYARKFRHKRNNMRQSYESYTITNEGDKVTIEATFSRRHNGTPERKKVVVEVDIRGDQAKSATVQDDR | 0.032
DEDTIRRQAKEFFKNFRDNDEDSLRTLMDENVEARYGDKTYHGRESVLTALATVLSQIDHLEVENLHVHNGRIEVVMKFVVNGREVRMNVIFHIRNGRIKKINIDPDEQRKLES | 1.49
EEEVSKRAREFVEAYQTGNEDKMHRLVDENADAQYGDKHIHGMTEIKRHVKRLTEEIRVQVESMDVKANNGHVRVRVHLVLHINGNPIDVTVIIVMRFKNGTIRSVQFRMPEEARDTIRK | -0.077
DDRHLQQLASIAAKALRTGNPKDMKKLVDPNAKMHYGDKEVHGREQMADVLRRIRRDADHIDLRSYSADNGRISIDMDLRVNGKKVRIIVKAEVHNGKVTHVTVDTK | 0.766
DENELELYKEVVEAENTGDPDEMKELVDPNVNVQVGDTTLHGMSELVKDAKRRRKQMRVDIKVTSMKAHNGRLEIRLEVVFEVNGRPTSDTITVTVHAHNGKVKEFNYHMDPDREKRQRS | 1.03
